Target: SARS-CoV-2 nsp7-11 polyprotein (SARS-CoV-2)
Assay: SEC-MALS

## SARS-CoV-2 nsp7-11 polyprotein (domain or fragment)
  stoichiometry N: 2

Reference: paper PMC9733933
